Measured values published in patent publication US20260265374A1 (JW THERAPEUTICS R AND D SHANGHAI, published 2026).
Positions count from the first letter of the chain named. Blank lines part the entries; values can stand above or below the binder they belong to.

Target: T1, Soluble CD19 protein (amino acids 20-291) (UniProt P15391 20-291)
T1 construct: range 20-291; Analyte in SPR, 300 nM to 4.69 nM; also called cognate ligand CD19
T1 sequence (looked up): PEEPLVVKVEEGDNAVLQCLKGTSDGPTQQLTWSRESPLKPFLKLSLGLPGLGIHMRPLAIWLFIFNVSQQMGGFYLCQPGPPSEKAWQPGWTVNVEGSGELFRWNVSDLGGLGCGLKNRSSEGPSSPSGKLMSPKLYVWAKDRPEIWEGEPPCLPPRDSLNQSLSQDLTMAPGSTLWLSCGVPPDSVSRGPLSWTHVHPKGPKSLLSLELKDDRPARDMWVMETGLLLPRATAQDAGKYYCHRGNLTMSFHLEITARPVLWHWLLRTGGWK
Test: SPR (Biacore T200), antibody captured on Protein A chip, soluble CD19 as analyte
Method: All SPR experiments were performed on a Biacore T200 (PCytiva) with HBS-EP as running buffer. The antibodies were captured by Protein A chip (LOT #10309880, Cytiva). Soluble CD19 protein (amino acids 20-291) was used as the analyte at concentrations ranging from 300 nM to 4.69 nM through the flow cells for 120 seconds followed by dissociation analysis for 300 seconds. Association rates (Kon), dissociation rates (Koff) and the constant Ka (Kon/Koff) were fitted to the results.

binding result: binds
B1: Antibody comprising scFv-2 fused with human IgG1 Fc fragment (Fc fusion)
chain: DIQMTQTTSSLSASLGDRVTISCRASQDISKYLNWYQQRPDGTVKLLIYHTSRLHSGVPSRFSGSGSGTDYSLTISNLEPEDIATYFCQQGNTLPYTFGGGTKLEITGSTSGSGKPGSGEGSTKGEVKLQESGPGLVAPSQSLSVTCTVSGVSLPDYGVSWIRQPPRKGLEWLGVIWGSETTYYNSALKSRLTIIKDNSKSQVFLKMNSLQTDDTAIYYCAKHYYYGGSYAMDYWGQGTSVTVSS
notes: scFv fused with human IgG1 Fc; not shown: human IgG1 Fc fragment

binding result: binds
B2: Antibody comprising scFv-1 fused with human IgG1 Fc fragment (Fc fusion)
chain: B1 chain with G100S, K103R
notes: as for B1
